The source of these data is patent EP0785948B1.

The assay concerns the target KGF receptor (membrane preparations from Balb/MK mouse epidermal keratinocytes) (mouse) (UniProt P21803). Put plainly: radioreceptor competition against 125I-labeled E. coli KGF, Balb/MK membrane preparations.

Chain of KGF receptor (membrane preparations from Balb/MK mouse epidermal keratinocytes) (mouse) (P21803 22-821): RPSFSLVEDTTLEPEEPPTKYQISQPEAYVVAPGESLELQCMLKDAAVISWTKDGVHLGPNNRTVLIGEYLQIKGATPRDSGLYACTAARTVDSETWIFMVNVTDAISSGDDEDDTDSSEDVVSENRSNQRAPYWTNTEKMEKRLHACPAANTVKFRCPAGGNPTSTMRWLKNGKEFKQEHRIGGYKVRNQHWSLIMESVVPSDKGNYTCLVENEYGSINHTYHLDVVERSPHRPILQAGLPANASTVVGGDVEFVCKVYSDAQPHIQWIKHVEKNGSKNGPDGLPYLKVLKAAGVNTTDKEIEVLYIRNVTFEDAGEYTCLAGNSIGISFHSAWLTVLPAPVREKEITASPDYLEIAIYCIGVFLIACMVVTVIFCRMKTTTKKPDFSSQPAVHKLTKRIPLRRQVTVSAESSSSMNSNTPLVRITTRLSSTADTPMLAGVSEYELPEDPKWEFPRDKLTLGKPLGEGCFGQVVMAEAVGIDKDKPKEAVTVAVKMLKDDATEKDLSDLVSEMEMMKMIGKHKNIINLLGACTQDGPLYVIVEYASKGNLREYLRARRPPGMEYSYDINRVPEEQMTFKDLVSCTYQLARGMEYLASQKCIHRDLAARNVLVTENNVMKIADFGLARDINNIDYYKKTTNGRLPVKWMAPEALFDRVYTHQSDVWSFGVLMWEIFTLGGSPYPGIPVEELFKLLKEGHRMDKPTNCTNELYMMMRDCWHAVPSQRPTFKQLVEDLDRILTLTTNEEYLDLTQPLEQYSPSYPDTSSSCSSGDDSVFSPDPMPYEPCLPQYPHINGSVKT

Consider “E. coli-derived, full-length native KGF (keratinocyte growth factor) (ligand)”, for which the KGF concentration to compete receptor binding with I^125-labeled KGF at 60% uncompetition rate is 65.8 ng/mL.
The substance “KGF-a (CHO-derived glycosylated recombinant KGF, 25-29 kDa form) (ligand)” came in with a KGF concentration to compete receptor binding with I^125-labeled KGF at 60% uncompetition rate of 93.5 ng/mL.
“KGF-b (CHO-derived N-terminally truncated unglycosylated KGF, about 17 kDa, cleaved at Arg23-Ser24) (ligand)” came in with a KGF concentration to compete receptor binding with I^125-labeled KGF at 60% uncompetition rate of 89.1 ng/mL.
